The values below are quoted from earlier work in PMC3174036.

This data set has as its target VEGFR-2 D7 D7 (Homo sapiens) (UniProt P35968).

As to VEGFR-2 D7 D7 (from UniProt P35968), the Kd was 100 µM.

As usually defined, the Kd is the constant that tells how readily two partners part at equilibrium.
